Experimental data as given in publication PMC11187563, “The importance of tyrosines in multimers of cyclic RGD nonapeptides: towards αvβ6-integrin targeted radiotherapeutics” (RSC Medicinal Chemistry, 2024).
Where two headings read alike, the source gives them in different places.

What was measured:
[1] = SPECT imaging of H2009 tumor xenograft, ROI-based tumor uptake; type: in vivo; details: SCID, mouse, iv, total radioactivity, i.v. injection of 36.5 MBq, scan time 1 h
Description: Fig. 6 Single-photon emission computed tomography (SPECT) of a SCID mouse bearing a human H2009 tumor xenograft on the right shoulder, recorded at 4 time points (1 h, 3 h, 24 h, and 72 h) after i.v. injection of 36.5 MBq of ^177Lu-Y8, scan time 1 h. Tumor position is indicated by white dotted circle. Adjacent figures denote ROI-based tumor uptakes in % IA mL^−1. TEXT PRINTED IN THE PICTURE: no label printed: % IA / mL: 2.8 (1 h p.i.); % IA / mL: 2.7 (3 h p.i.); % IA / mL: 2.4 (24 h p.i.); % IA / mL: 2.0 (72 h p.i.) DOUBTS OF THE COPYIST ABOUT THIS PICTURE: The picture prints no substance label. The unit % IA / mL is printed only at the colour scale bar, and assigning it to the numbers beside the dotted circles is assumed.
SPECT imaging was performed for 60 min per animal on a nanoScan SPECT/CT (Mediso, Budapest, Hungary) at different timepoints (1 h, 3 h, 24 h, 72 h) after intravenous injection of approx. 40 MBq [^177Lu]Lu-Y8 per animal (n = 2). Reconstruction, image analysis and quantification of SPECT data were performed using Nucline and Interview fusion software (both Mediso).

[2] = test system: αvβ6-integrin expressing human lung adenocarcinoma cell line H2009 xenografts; assay: Ex vivo biodistribution of 177Lu-labeled peptide tetramers in H2009 xenografted SCID mice; details: H2009 bearing SCID mice
Summary of the method: (§1)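 SCID mice carried subcutaneous H2009 xenografts on the right shoulder. 177Lu-labeled conjugates were injected i.v., and ex vivo organ distribution was measured at two time points post-injection.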

[3] = as above; details: CB17 SCID, mouse, iv, total radioactivity; for tissue uptake at 1.5 h: 90 min p.i.; for tissue uptake at 72 h: 199 pmol, 3 d p.i.; for tissue uptake at 24 h: 154 pmol, 24 h p.i.
Summary of the method: as §1

[4] = adrenals, H2009 bearing SCID mice, read-out: Adrenals %IA/g
[5] = blood, H2009 bearing SCID mice, read-out: Blood %IA/g
[6] = bone, H2009 bearing SCID mice, read-out: Bone %IA/g
[7] = heart (myocard), H2009 bearing SCID mice, read-out: Heart (myocard) %IA/g
[8] = kidneys, H2009 bearing SCID mice, read-out: Kidneys %IA/g
[9] = large intestine (empty), H2009 bearing SCID mice, read-out: Large intestine (empty) %IA/g
[10] = liver, H2009 bearing SCID mice, read-out: Liver %IA/g
[11] = lung, H2009 bearing SCID mice, read-out: Lung %IA/g
[12] = muscle, H2009 bearing SCID mice, read-out: Muscle %IA/g
[13] = pancreas, H2009 bearing SCID mice, read-out: Pancreas %IA/g

CC(C)C[C@@H]1NC(=O)[C@H](CC(=O)O)NC(=O)CNC(=O)[C@H](CCCNC(=N)N)NC(=O)[C@H](Cc2ccc(O)cc2)NC(=O)[C@H](CCCCNC(=O)CCc2cn(CCCNC(=O)CCP(=O)(O)CN3CCN(CP(=O)(O)CCC(=O)NCCCn4cc(CCC(=O)NCCCC[C@H]5C(=O)N[C@@H](Cc6ccc(O)cc6)C(=O)N[C@@H](CCCNC(=N)N)C(=O)NCC(=O)N[C@@H](CC(=O)O)C(=O)N[C@@H](CC(C)C)C(=O)N[C@@H](C)C(=O)N[C@@H](Cc6ccc(O)cc6)C(=O)N6CCC[C@@H]6C(=O)N5C)nn4)CCN(CP(=O)(O)CCC(=O)NCCCn4cc(CCC(=O)NCCCC[C@H]5C(=O)N[C@@H](Cc6ccc(O)cc6)C(=O)N[C@@H](CCCNC(=N)N)C(=O)NCC(=O)N[C@@H](CC(=O)O)C(=O)N[C@@H](CC(C)C)C(=O)N[C@@H](C)C(=O)N[C@@H](Cc6ccc(O)cc6)C(=O)N6CCC[C@@H]6C(=O)N5C)nn4)CCN(CP(=O)(O)CCC(=O)NCCCn4cc(CCC(=O)NCCCC[C@H]5C(=O)N[C@@H](Cc6ccc(O)cc6)C(=O)N[C@@H](CCCNC(=N)N)C(=O)NCC(=O)N[C@@H](CC(=O)O)C(=O)N[C@@H](CC(C)C)C(=O)N[C@@H](C)C(=O)N[C@@H](Cc6ccc(O)cc6)C(=O)N6CCC[C@@H]6C(=O)N5C)nn4)CC3)nn2)N(C)C(=O)[C@H]2CCCN2C(=O)[C@H](Cc2ccc(O)cc2)NC(=O)[C@H](C)NC1=O [Compound 177Lu-Y8, metal not drawn]
tissue uptake per volume at 1 h ([1]; 1 h p.i.): 2.8 %ID/mL
tissue uptake per volume at 3 h ([1]; 3 h p.i.): 2.7 %ID/mL
tissue uptake per volume at 24 h ([1]; 24 h p.i.): 2.4 %ID/mL
tissue uptake per volume at 72 h ([1]; 72 h p.i.): 2 %ID/mL
tumor/organ ratio, Kidneys ([2]; 90 min p.i.): 0.0
tumor/organ ratio, Kidneys ([2]; 24 h p.i.): 0.0
tumor/organ ratio, Kidneys ([2]; 3 d p.i.): 0.0
tissue uptake at 1.5 h ([3]; H2009 tumor, 124 pmol, H2009 bearing SCID mice, read-out: Tumor H2009 %IA/g): 5.89 %ID/g
tissue uptake at 72 h ([3]; H2009 tumor, H2009 bearing SCID mice, read-out: Tumor H2009 %IA/g): 1.67 %ID/g
tissue uptake at 1.5 h ([3]; adrenals, 124 pmol, H2009 bearing SCID mice, read-out: Adrenals %IA/g): 0.71 %ID/g
tissue uptake at 24 h [3, 4]: 0.25 %ID/g
tissue uptake at 72 h [3, 4]: 0.22 %ID/g
tissue uptake at 1.5 h ([3]; adrenals, + 50 nmol non-labeled compound 10 min prior to activity, n = 2, read-out: Adrenals %IA/g, + 50 nmol cold): 0.53 %ID/g
tissue uptake at 1.5 h ([3]; blood, 124 pmol, H2009 bearing SCID mice, read-out: Blood %IA/g): 2.54 %ID/g
tissue uptake at 24 h [3, 5]: 0.04 %ID/g
tissue uptake at 72 h [3, 5]: 0.03 %ID/g
tissue uptake at 1.5 h ([3]; blood, + 50 nmol non-labeled compound 10 min prior to activity, n = 2, read-out: Blood %IA/g, + 50 nmol cold): 1.06 %ID/g
tissue uptake at 1.5 h ([3]; bone, 124 pmol, H2009 bearing SCID mice, read-out: Bone %IA/g): 3.24 %ID/g
tissue uptake at 24 h [3, 6]: 0.68 %ID/g
tissue uptake at 72 h [3, 6]: 0.57 %ID/g
tissue uptake at 1.5 h ([3]; bone, + 50 nmol non-labeled compound 10 min prior to activity, n = 2, read-out: Bone %IA/g, + 50 nmol cold): 0.76 %ID/g
tissue uptake at 1.5 h ([3]; heart (myocard), 124 pmol, H2009 bearing SCID mice, read-out: Heart (myocard) %IA/g): 1.01 %ID/g
tissue uptake at 24 h [3, 7]: 0.16 %ID/g
tissue uptake at 72 h [3, 7]: 0.13 %ID/g
tissue uptake at 1.5 h ([3]; heart (myocard), + 50 nmol non-labeled compound 10 min prior to activity, n = 2, read-out: Heart (myocard) %IA/g, + 50 nmol cold): 0.64 %ID/g
tissue uptake at 1.5 h ([3]; kidneys, 124 pmol, H2009 bearing SCID mice, read-out: Kidneys %IA/g): 166 %ID/g
tissue uptake at 24 h [3, 8]: 235 %ID/g
tissue uptake at 72 h [3, 8]: 237 %ID/g
tissue uptake at 1.5 h ([3]; kidneys, + 50 nmol non-labeled compound 10 min prior to activity, n = 2, read-out: Kidneys %IA/g, + 50 nmol cold): 178 %ID/g
tissue uptake at 1.5 h ([3]; large intestine (empty), 124 pmol, H2009 bearing SCID mice, read-out: Large intestine (empty) %IA/g): 3.66 %ID/g
tissue uptake at 24 h [3, 9]: 1.46 %ID/g
tissue uptake at 72 h [3, 9]: 0.48 %ID/g
tissue uptake at 1.5 h ([3]; large intestine (empty), + 50 nmol non-labeled compound 10 min prior to activity, n = 2, read-out: Large intestine (empty) %IA/g, + 50 nmol cold): 0.89 %ID/g
tissue uptake at 1.5 h ([3]; liver, 124 pmol, H2009 bearing SCID mice, read-out: Liver %IA/g): 1.16 %ID/g
tissue uptake at 24 h [3, 10]: 0.98 %ID/g
tissue uptake at 72 h [3, 10]: 0.7 %ID/g
tissue uptake at 1.5 h ([3]; liver, + 50 nmol non-labeled compound 10 min prior to activity, n = 2, read-out: Liver %IA/g, + 50 nmol cold): 0.7 %ID/g
tissue uptake at 1.5 h ([3]; lung, 124 pmol, H2009 bearing SCID mice, read-out: Lung %IA/g): 5.63 %ID/g
tissue uptake at 24 h [3, 11]: 1.2 %ID/g
tissue uptake at 72 h [3, 11]: 0.73 %ID/g
tissue uptake at 1.5 h ([3]; lung, + 50 nmol non-labeled compound 10 min prior to activity, n = 2, read-out: Lung %IA/g, + 50 nmol cold): 3.39 %ID/g
tissue uptake at 1.5 h ([3]; muscle, 124 pmol, H2009 bearing SCID mice, read-out: Muscle %IA/g): 0.87 %ID/g
tissue uptake at 24 h [3, 12]: 0.36 %ID/g
tissue uptake at 72 h [3, 12]: 0.23 %ID/g
tissue uptake at 1.5 h ([3]; muscle, + 50 nmol non-labeled compound 10 min prior to activity, n = 2, read-out: Muscle %IA/g, + 50 nmol cold): 0.2 %ID/g
tissue uptake at 1.5 h ([3]; pancreas, 124 pmol, H2009 bearing SCID mice, read-out: Pancreas %IA/g): 0.42 %ID/g
tissue uptake at 24 h [3, 13]: 0.14 %ID/g
tissue uptake at 72 h [3, 13]: 0.12 %ID/g
tissue uptake at 1.5 h ([3]; pancreas, + 50 nmol non-labeled compound 10 min prior to activity, n = 2, read-out: Pancreas %IA/g, + 50 nmol cold): 0.19 %ID/g
